In patent publication US20060281899A1, “Mutants of biotin binding protein” (priority 2002, published 2006):
Read-outs that look alike come from different tables or passages of the source.

Assays:
[1] = IASyS optical biosensor, binding in a 2-iminobiotin cuvette; conditions: for Kd: 2-iminobiotin cuvette, 20.0° C.
Procedure: The biotin-binding characteristics of the AVR proteins were studied as previously described using the IASyS optical biosensor (Marttila, A. T., Airenne, K. J., Laitinen, O. H., Kulik, T., Bayer, E. A ., Wilchek, M. and Kulomaa, M. S. (1998) FEBS Lett. 441, 313-317; Laitinen, O. H., Airenne, K. J., Marttila, A. T., Kulik, T., Porkka, E., Bayer, E. A., Wilchek, M. and Kulomaa, M. S. (1999) FEBS Lett. 461, 52-8). Affinities were measured for 2-iminobiotin or biotin at 20.0° C. using a stirring power of 100%. Briefly, the protein under study in biotin-free buffer was allowed to bind to the biotin-coated surface of the IASyS cuvette. As a negative control, the protein under study was saturated with excess biotin prior to (and was also maintained under biotin excess upon) addition to the cuvette. Under these conditions, residual binding to the biotin surface of the cuvette could be regarded as unspecific, and was used as a measure of baseline variation. Binding equilibrium in the experimental cuvette was considered to be attained after no binding was detected as compared to negative control.
The actual dissociation constants (Kd) were calculated for the AVRs according to the kass and kdiss rates measured in a separate assay in different protein concentrations (varying between 10 μM and 100 pM) (Table 4 and FIG. 6). The binding seemed to follow two-order or even more complex kinetics. However, the first 1000 seconds of the binding fitted considerably well to the bi-phasic curve. All measured dissociation rate constants (kdiss) followed the first-order kinetics. Because of the extremely high binding, affinities of the AVRs for biotin could not be determined except for AVR1, AVR2 and AVR7. Binding to 2-iminobiotin was determined only for AVR4/5, and it was similar to that of avidin. The lack of binding for the other AVRs was surprising, since most of them were purified using 2-iminobiotin agarose.

[2] = IAsys reversibility of binding to biotin, AVR4/5 forms; conditions: biotin cuvette
Procedure: The biotin-binding characteristics of the different avidins were studied using an IAsys optical biosensor at 20° C. […] H., Hytönen, V. P., Ahlroth, M. K., Pentikäinen, O. T., Gallagher, C., Nordlund, H. R., Ovod, V., Marttila, A. T., Porkka, E., Heino, S., Johnson, M. S., Airenne, K. J. & Kulomaa, M. S. (2002) Biochem. J. 363, 609-617).

[3] = IASyS reversibility of biotin binding of avidin and AVRs; conditions: biotin cuvette, after addition of free biotin (0.17 mg/ml)
Procedure: The reversibility of biotin binding was studied as follows: Avidin and the AVRs were allowed to bind to a biotin-coated cuvette. After measuring the initial binding (A) as described above, biotin-saturated (0.17 mg/ml) buffer was injected into the cuvette and the amount of proteins remaining bound was measured until no dissociation was seen, again as compared to the negative control cuvette (B). The measurement time was at least 20 minutes. The percent reversibility was calculated as follows: reversibility (%)=100*(A−B)/A. A−B is the amount of liberated proteins after biotin adding.

[4] = Microparticle analysis, BF523-biotin binding of protein-coated particles before and after 95° C.; format: physicochemical
Procedure: Before the analysis, 3.22 μm microparticles with COOH-group/0.852 nm2 (Bangs laboratories, Fishers, Ind., USA) were covalently coated with biotin-binding proteins. Microparticles (1*108 pcs) were washed twice with H20 by sequential centrifuging (5000 g; 3 min) and aspiration, and resuspended in 200 μl PB buffer (50 mM NaH2PO4-HCl, pH 3.0). A solution of biotin binding protein (50 μl, 1 mg/ml or 3 mg/ml, 50 mM Na-acetate pH 4.0) was added while vortexing. The suspension was incubated for 1 h (500 rpm; 23° C.). Particles were washed with PB and with MES buffer (50 mM, pH 5.5) and suspended in MES buffer (200 μl). […] After the last wash particles were suspended in 100 μl volume and concentration of particles was determined with Multisizer 3 Coulter Counter (Beckman Coulter, Fullerton, Calif., USA). […]
Microparticles (5*106 pcs) were suspended in 900 μl of assay buffer and aliquoted in […] PCR-tubes (i-v; 180 μl/aliquot). […] The samples were measured with ArcDia TPX PlateReader (ArcDia Ltd.) (Soini, E., Meltola, N. J., Soini, A. E., Soukka, J., Soini, J. T. & Hanninen, P. E. (2000) Biochem. Soc. Trans. 28, 70-74). […]
The fluorescence emission efficiencies of the BF523-biotin conjugate (200 nM) was determined before and after the incubation (30 min) at 95° C. […]

[5] = 2-iminobiotin cuvette (as for Kd of this protein)

kass [1, 5]: (1.8 ± 0.2) × 10^5 M^−1 s^−1 | kdiss [1, 5]: (1.7 ± 0.7) × 10^−3 s^−1 | Kd ([1]; read-out: Kd calculated directly from the binding curves): 91 nM | Kd ([1]; read-out: Kd calculated from the equilibrium response data): 570 nM | maximal binding (Rmax) ([1]; iminobiotin binding, highest concentration (2.2×10−6 M)): ca. 1000 arc seconds | Reversibility of binding to biotin [2]: 5 ± 3% | Reversibility of biotin binding [3]: 2 ± 2% | capacity of coated particles ([4]; BF523-biotin binding, no heat treatment (i, iii)): remarkably higher
B1: AVR4/5: Recombinant chicken avidin-related protein 4/5 (AVR4 and AVR5 identical in coding sequence) (protein, UniProt P56734 25-150, looked up)
Avidin-related protein 4/5: ARKCSLTGKWTNNLGSIMTIRAVNSRGEFTGTYLTAVADNPGNITLSPLLGIQHKRASQPTFGFTVHWNFSESTTVFTGQCFIDRNGKEVLKTMWLLRSSVNDISYDWKATRVGYNNFTRLCTVEE
original signal after heat treatment of coated particles ([4]; 30 minutes at 95° C., BF523-biotin added after treatment (iv)): 93%
